{"source": "patent US20230250154A1", "about": "(CYTONICS, published 2023)", "binders": {"B1": {"name": "Variant A2M, bait region SEQ ID NO 134 (other)", "chain": "SVSGKPQYMVLVPSLLHTETTEKGCVLLSYLNETVTVSASLESVRGNRSLFTDLEAENDVLHCVAFAVPKSSSNEEVMFLTVQVKGPTQEFKKRTTVMVKNEDSLVFVQTDKSIYKPGQTVKFRVVSMDENFHPLNELIPLVYIQDPKGNRIAQWQSFQLEGGLKQFSFPLSSEPFQGSYKVVVQKKSGGRTEHPFTVEEFVLPKFEVQVTVPKIITILEEEMNVSVCGLYTYGKPVPGHVTVSICRKYSDASDCHGEDSQAFCEKFSGQLNSHGCFYQQVKTKVFQLKRKEYEMKLHTEAQIQEEGTVVELTGRQSSEITRTITKLSFVKVDSHFRQGIPFFGQVRLVDGKGVPIPNKVIFIRGNEANYYSNATTDEHGLVQFSINTTNVMGTSLTVRVNYKDRSPCYGYQWVSEEHEEAHHTAYLVFSPSKSFVHLEPMSHELPCGHTQTVQAHYILNGGTLLGLKKLSFYYLIMAKGGIVRTGTHGLLVKQEDMKGHFSISIPVKSDIAPVARLLIYAVLPTGDVIGDSAKYDVENCLANKVDLSFSPSQSLPASHAHLRVTAAPQSVCALRAVDQSVLLMKPDAELSASSVYNLLPEKDLTGFPGPLNDQDDEDCINRHNVYINGITYTPVSSTNEKDMYSFLEDMGLKAFTNSKIRKPKMCPQLEQYEMHGPSELEGRGSIPENFFGVKEEEGLGSSEDLVVQIVEEPHTKLRKYFPETWIWDLVVVNSAGVAEVGVTVPDTITEWKAGAFCLSEDAGLGISSTASLRAFQPFFVELTMPYSVIRGEAFTLKATVLNYLPKCIRVSVQLEASPAFLAVPVEKEQAPHCICANGRQTVSWAVTPKSLGNVNFTVSAEALESQELCGTEVPSVPEHGRKDTVIKPLLVEPEGLEKETTFNSLLCPSGGEVSEELSLKLPPNVVEESARASVSVLGDILGSAMQNTQNLLQMPYGCGEQNMVLFAPNIYVLDYLNETQQLTPEIKSKAIGYLNTGYQRQLNYKHYDGSYSTFGERYGRNQGNTWLTAFVLKTFAQARAYIFIDEAHITQALIWLSQRQKDNGCFRSSGSLLNNAIKGGVEDEVTLSAYITIALLEIPLTVTHPVVRNALFCLESAWKTAQEGDHGSHVYTKALLAYAFALAGNQDKRKEVLKSLNEEAVKKDNSVHWERPQKPKAPVGHFYEPQAPSAEVEMTSYVLLAYLTAQPAPTSEDLTSATNIVKWITKQQNAQGGFSSTQDTVVALHALSKYGAATFTRTGKAAQVTIQSSGTFSSKFQVDNNNRLLLQQVSLPELPGEYSMKVTGEGCVYLQTSLKYNILPEKEEFPFALGVQTLPQTCDEPKAHTSFQISLSVSYTGSRSASNMAIVDVKMVSGFIPLKPTVKMLERSNHVSRTEVSSNHVLIYLDKVSNQTLSLFFTVLQDVPVRDLKPAIVKVYDYYETDEFAIAEYNAPCSKDLGNADYKDDDDKGASHHHHHH"}, "B2": {"name": "Variant A2M, bait region SEQ ID NO 128 (other)", "chain": "SVSGKPQYMVLVPSLLHTETTEKGCVLLSYLNETVTVSASLESVRGNRSLFTDLEAENDVLHCVAFAVPKSSSNEEVMFLTVQVKGPTQEFKKRTTVMVKNEDSLVFVQTDKSIYKPGQTVKFRVVSMDENFHPLNELIPLVYIQDPKGNRIAQWQSFQLEGGLKQFSFPLSSEPFQGSYKVVVQKKSGGRTEHPFTVEEFVLPKFEVQVTVPKIITILEEEMNVSVCGLYTYGKPVPGHVTVSICRKYSDASDCHGEDSQAFCEKFSGQLNSHGCFYQQVKTKVFQLKRKEYEMKLHTEAQIQEEGTVVELTGRQSSEITRTITKLSFVKVDSHFRQGIPFFGQVRLVDGKGVPIPNKVIFIRGNEANYYSNATTDEHGLVQFSINTTNVMGTSLTVRVNYKDRSPCYGYQWVSEEHEEAHHTAYLVFSPSKSFVHLEPMSHELPCGHTQTVQAHYILNGGTLLGLKKLSFYYLIMAKGGIVRTGTHGLLVKQEDMKGHFSISIPVKSDIAPVARLLIYAVLPTGDVIGDSAKYDVENCLANKVDLSFSPSQSLPASHAHLRVTAAPQSVCALRAVDQSVLLMKPDAELSASSVYNLLPEKDLTGFPGPLNDQDDEDCINRHNVYINGITYTPVSSTNEKDMYSFLEDMGLKAFTNSKIRKPKMCPQLEQYEMHGPSELEGRGSEAIPMSIPTKEEEGLGSIPENFFGVVEEPHTKLRKYFPETWIWDLVVVNSAGVAEVGVTVPDTITEWKAGAFCLSEDAGLGISSTASLRAFQPFFVELTMPYSVIRGEAFTLKATVLNYLPKCIRVSVQLEASPAFLAVPVEKEQAPHCICANGRQTVSWAVTPKSLGNVNFTVSAEALESQELCGTEVPSVPEHGRKDTVIKPLLVEPEGLEKETTFNSLLCPSGGEVSEELSLKLPPNVVEESARASVSVLGDILGSAMQNTQNLLQMPYGCGEQNMVLFAPNIYVLDYLNETQQLTPEIKSKAIGYLNTGYQRQLNYKHYDGSYSTFGERYGRNQGNTWLTAFVLKTFAQARAYIFIDEAHITQALIWLSQRQKDNGCFRSSGSLLNNAIKGGVEDEVTLSAYITIALLEIPLTVTHPVVRNALFCLESAWKTAQEGDHGSHVYTKALLAYAFALAGNQDKRKEVLKSLNEEAVKKDNSVHWERPQKPKAPVGHFYEPQAPSAEVEMTSYVLLAYLTAQPAPTSEDLTSATNIVKWITKQQNAQGGFSSTQDTVVALHALSKYGAATFTRTGKAAQVTIQSSGTFSSKFQVDNNNRLLLQQVSLPELPGEYSMKVTGEGCVYLQTSLKYNILPEKEEFPFALGVQTLPQTCDEPKAHTSFQISLSVSYTGSRSASNMAIVDVKMVSGFIPLKPTVKMLERSNHVSRTEVSSNHVLIYLDKVSNQTLSLFFTVLQDVPVRDLKPAIVKVYDYYETDEFAIAEYNAPCSKDLGNADYKDDDDKGASHHHHHH"}}, "test_in_all_cases": "cell-based or functional assay", "key": {"Elastase": {"molecular_target": "Elastase"}, "Cathepsin G": {"molecular_target": "T1, Cathepsin G (UniProt P08311 21-244)", "T1 sequence (looked up)": "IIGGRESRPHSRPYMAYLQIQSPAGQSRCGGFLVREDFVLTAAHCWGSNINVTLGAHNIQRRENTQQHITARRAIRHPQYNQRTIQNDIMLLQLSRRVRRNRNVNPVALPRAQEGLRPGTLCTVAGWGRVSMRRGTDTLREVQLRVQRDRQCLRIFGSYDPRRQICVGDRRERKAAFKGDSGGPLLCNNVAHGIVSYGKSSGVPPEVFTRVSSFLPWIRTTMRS"}, "MMP1": {"molecular_target": "T2, MMP1 (human, UniProt P03956 100-469, limits assumed)", "T2 sequence (looked up)": "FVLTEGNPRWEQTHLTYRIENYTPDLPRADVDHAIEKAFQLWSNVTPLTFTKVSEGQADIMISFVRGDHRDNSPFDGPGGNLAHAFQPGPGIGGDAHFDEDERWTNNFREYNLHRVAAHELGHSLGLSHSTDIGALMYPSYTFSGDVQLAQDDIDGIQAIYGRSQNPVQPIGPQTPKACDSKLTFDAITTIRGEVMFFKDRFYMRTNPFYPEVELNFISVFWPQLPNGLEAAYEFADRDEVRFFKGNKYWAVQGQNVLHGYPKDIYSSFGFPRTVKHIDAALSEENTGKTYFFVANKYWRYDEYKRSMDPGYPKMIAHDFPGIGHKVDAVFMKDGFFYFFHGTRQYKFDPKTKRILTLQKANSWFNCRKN"}, "MMP8": {"molecular_target": "MMP8 (human, UniProt P22894 101-467, limits assumed)", "sequence (P22894 101-467 limits assumed)": "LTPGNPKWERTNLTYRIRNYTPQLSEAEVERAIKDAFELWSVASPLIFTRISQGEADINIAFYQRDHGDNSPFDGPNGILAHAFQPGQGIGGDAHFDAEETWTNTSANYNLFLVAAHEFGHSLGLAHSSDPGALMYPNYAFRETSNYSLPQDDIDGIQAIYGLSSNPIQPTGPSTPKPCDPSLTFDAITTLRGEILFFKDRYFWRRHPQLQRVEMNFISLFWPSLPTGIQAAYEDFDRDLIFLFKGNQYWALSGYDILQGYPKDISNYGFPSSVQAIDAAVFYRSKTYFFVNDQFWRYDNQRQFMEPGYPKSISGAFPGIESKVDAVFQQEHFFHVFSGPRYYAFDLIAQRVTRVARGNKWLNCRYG"}, "MMP2": {"molecular_target": "T3, MMP2 (human, UniProt P08253 110-660, limits assumed)", "T3 sequence (looked up)": "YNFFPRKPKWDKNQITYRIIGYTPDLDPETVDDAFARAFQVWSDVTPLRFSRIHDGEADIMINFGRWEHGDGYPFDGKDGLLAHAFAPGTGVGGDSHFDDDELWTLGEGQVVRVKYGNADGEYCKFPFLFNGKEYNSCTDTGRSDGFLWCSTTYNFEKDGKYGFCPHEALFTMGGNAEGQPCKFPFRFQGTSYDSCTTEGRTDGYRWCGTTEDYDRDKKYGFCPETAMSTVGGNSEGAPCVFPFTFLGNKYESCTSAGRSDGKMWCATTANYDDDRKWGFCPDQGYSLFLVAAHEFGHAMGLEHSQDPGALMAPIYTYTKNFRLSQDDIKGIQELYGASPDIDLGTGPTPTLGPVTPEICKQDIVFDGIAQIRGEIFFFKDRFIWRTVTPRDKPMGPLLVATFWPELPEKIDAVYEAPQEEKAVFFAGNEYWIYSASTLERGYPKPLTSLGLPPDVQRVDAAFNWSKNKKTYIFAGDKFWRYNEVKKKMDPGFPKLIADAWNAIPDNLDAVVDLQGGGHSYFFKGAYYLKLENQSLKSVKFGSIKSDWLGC"}}, "data": [{"binder": "B1", "values": [{"measurement": "Protease Inhibition (% of WT)", "setting": "Elastase", "result": "300 % of WT"}, {"measurement": "Protease Inhibition (% of WT)", "setting": "Cathepsin G", "result": "250 % of WT"}, {"measurement": "Protease Inhibition (% of WT)", "setting": "MMP1", "result": "200 % of WT"}, {"measurement": "Protease Inhibition (% of WT)", "setting": "MMP8", "result": "200 % of WT"}]}, {"binder": "B2", "values": [{"measurement": "Protease Inhibition (% of WT)", "setting": "Elastase", "result": "100 % of WT"}, {"measurement": "Protease Inhibition (% of WT)", "setting": "Cathepsin G", "result": "225 % of WT"}, {"measurement": "Protease Inhibition (% of WT)", "setting": "MMP1", "result": "400 % of WT"}, {"measurement": "Protease Inhibition (% of WT)", "setting": "MMP2", "result": "20 % of WT"}]}]}
